Data from patent US8883964B2, “Compositions comprising modified collagen and uses therefor” (The Johns Hopkins University, priority 2004, dated 2014).
Square brackets hold non-standard residues; d marks the D form. Ends that are not written are not given here. Hyp = O=C(O)[C@@H]1C[C@@H](O)CN1

How the values were obtained:
[1] = Dynamic light scattering of CMP functionalized gold NPs; assay type: physicochemical
Method: The thickness of the peptide layer on the gold NP surface was determined by dynamic light scattering (DLS) (FIG. 15). The peptide layer thicknesses of NP-1, NP-2 and NP-3 were 2.0 nm, 3.65 nm and 6.85 nm, respectively (Table 3).
Purified Cys-CMP (peptides 1′˜4′) (0.5 mL, 500 μM) was added to gold nanoparticle solution (5 mL, 17 nM), and the reaction mixture was incubated at room temperature for twenty-four hours. Excess CMPs were removed by repeated centrifugation and washing in deionized water.

[2] = Measurement of number of peptides per NP (passivation number); assay type: physicochemical
Method: The average number of CMPs on the NPs was determined by measuring the concentrations of free CMPs remaining in solution after the removal of the NPs from a series of incubation mixtures with varying CMP/NP ratios (FIG. 16 and Table 3).^36 The numbers of CMPs immobilized on the NP surfaces were 582, 444, and 399 for NP-1, NP-2, and NP-3, respectively. […] This may have been caused by surface anchoring of the chain ends that prohibited the staggered arrangement of the peptide chains required for the formation of triple helix.
Seven 10 μM Cys-CMP solutions with varying concentrations of citrate-stabilized gold NP (2˜14 nM) were prepared. The mixtures were incubated for 2 hours at 25° C. and the gold NPs were removed by centrifugation. The concentrations of free peptides remaining in the supernatant were determined from the UV-Vis absorbance at 215 nm with citrate ion background subtraction. The number of peptides per Au NP was calculated from the slope of the linear fit of the data points. (FIG. 17)

type I collagen fibers = molecular target: T1, type I collagen fibers (Bos taurus, UniProt P02453+P02465); assay: TEM analysis of NP binding to reconstituted type I collagen fibers; parameters: species or system bovine; conditions: phosphate buffer at 25° C.
T1 construct: natural collagen (acid soluble, bovine type I); purchased Sigma
T1 sequence (P02453 162-1217 limits assumed): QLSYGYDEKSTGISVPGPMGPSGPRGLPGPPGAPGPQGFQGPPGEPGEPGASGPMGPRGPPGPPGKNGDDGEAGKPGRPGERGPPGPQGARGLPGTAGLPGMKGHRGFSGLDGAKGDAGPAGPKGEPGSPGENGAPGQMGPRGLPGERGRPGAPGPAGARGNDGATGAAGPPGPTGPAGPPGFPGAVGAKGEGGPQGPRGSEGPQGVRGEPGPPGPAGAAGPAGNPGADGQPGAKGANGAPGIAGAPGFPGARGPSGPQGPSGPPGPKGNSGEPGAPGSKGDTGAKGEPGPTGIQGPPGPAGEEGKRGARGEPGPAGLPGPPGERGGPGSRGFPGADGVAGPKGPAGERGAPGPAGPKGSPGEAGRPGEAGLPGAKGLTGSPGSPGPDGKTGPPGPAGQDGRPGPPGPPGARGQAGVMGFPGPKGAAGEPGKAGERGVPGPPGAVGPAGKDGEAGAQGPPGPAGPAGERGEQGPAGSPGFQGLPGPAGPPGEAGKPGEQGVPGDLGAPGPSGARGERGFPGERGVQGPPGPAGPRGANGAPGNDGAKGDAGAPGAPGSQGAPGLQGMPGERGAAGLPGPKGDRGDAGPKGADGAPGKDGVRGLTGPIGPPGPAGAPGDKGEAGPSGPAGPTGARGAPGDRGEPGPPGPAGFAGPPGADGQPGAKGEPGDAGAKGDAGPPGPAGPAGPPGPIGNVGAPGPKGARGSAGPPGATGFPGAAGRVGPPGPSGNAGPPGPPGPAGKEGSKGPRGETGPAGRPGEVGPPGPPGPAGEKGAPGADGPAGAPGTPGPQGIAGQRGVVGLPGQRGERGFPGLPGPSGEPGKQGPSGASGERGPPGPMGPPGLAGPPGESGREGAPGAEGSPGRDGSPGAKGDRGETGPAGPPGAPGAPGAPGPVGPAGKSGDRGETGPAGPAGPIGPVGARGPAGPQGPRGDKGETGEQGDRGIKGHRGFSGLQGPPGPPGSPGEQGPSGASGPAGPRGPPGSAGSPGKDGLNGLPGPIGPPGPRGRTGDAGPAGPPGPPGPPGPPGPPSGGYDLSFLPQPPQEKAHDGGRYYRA
T1 sequence (P02465 80-1117 limits assumed): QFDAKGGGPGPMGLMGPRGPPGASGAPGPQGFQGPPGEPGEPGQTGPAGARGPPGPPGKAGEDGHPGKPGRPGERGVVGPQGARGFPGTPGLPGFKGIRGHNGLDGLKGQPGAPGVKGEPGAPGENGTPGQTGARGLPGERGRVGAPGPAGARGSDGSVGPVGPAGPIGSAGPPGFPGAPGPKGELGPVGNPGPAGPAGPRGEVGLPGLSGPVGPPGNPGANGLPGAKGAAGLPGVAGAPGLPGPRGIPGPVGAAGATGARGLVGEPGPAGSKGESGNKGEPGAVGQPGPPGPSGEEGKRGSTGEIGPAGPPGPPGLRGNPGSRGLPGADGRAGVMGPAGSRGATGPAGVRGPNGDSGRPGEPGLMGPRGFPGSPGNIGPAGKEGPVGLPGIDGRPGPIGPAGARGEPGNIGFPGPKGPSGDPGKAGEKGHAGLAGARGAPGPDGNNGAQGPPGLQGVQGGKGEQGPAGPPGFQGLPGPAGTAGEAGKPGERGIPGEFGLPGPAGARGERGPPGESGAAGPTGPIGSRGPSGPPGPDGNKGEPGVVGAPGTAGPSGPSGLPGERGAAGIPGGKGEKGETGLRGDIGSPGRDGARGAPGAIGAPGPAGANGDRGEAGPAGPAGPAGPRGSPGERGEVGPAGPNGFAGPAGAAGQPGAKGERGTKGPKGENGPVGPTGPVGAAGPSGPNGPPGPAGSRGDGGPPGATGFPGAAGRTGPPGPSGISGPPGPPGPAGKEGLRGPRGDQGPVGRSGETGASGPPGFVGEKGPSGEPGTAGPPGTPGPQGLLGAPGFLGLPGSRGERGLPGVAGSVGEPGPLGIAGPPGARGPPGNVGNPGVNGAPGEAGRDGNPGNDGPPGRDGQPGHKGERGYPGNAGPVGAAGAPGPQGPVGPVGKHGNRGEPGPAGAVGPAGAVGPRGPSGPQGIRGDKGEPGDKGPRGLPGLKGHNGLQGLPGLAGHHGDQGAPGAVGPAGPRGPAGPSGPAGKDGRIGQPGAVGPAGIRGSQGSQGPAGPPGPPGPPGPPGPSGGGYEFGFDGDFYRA
Method: Moreover, NP-3 seemed to bind to defined locations within the gap regions along the fiber axis (FIG. 19C). Due to the large particle size and limitations of transmission electron microscopy resolution, the exact locations of these binding sites could not be determined. Twice as many NP-3 particles per unit area was found in the gap regions (dark bands) than on the overlap regions (light bands) of the collagen fibers. This difference was abolished at incubation temperatures above 40° C. (FIG. 20).
Collagen fibers were regenerated by mixing 0.5 mL of acid soluble type I collagen (1 mg/mL) in 50 mM acetic acid solution with 1 mL of sodium phosphate buffer (10 mM, pH 8.25). The mixture was incubated at room temperature for 12 hours.
A drop (8 μL) of type I collagen solution (0.3 mg/mL in PBS containing 1% BSA) was added to a holey carbon TEM grid. NP-3 solution (3 nM in PBS containing 1% BSA) was added to the grid and incubated for 5 minutes at room temperature or at 40° C., followed by washing with deionized water. The collagen fibers were stained with uranyl acetate (1%).

binding to type I collagen fibers (type I collagen fibers): little binding
Substance: NP-4: gold nanoparticle functionalized with scrambled peptide 4′ (CGPG[Hyp]P[Hyp]PPGPP[Hyp]G[Hyp][Hyp]P[Hyp]G[Hyp]GG; also: N-terminal Cys bound to gold nanoparticle surface)
Particle Size by DLS [1]: 16.2 ± 3.1 nm
Measured Peptide layer thickness ([1]; DLS): 1.5 nm
Number of peptides per NP [2]: 524 ± 59
